Reference: the supplement of paper PMC10567573

B1: FEM1B (parent)
chain: TLAALLLNRSESDIRYLLGYVSQQ

Variants of: B1
Assay: protein stability index of a GFP-peptide fusion (GPS, HEK-293T) (PSI 1-6); higher = more stable
Details: c terminus: a fixed tail appended
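Also: lentivirally expressed fusions sorted by FACS into six bins by GFP to DsRed ratio, PSI derived from sequencing read proportions per bin multiplied by bin number.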

Protein stability index, by site and new letter:
L18: H 2.17, T 3.06, A 1.98, N 1.73, F 2.34, E 1.78, Q 3.66, V 1.67, S 3.62, Y 3.1
D13: K 2.79, P 2.13, Y 3.38, W 4.04, F 1.76, Q 2.04, E 3.26, R 2.72, H 3.21, S 2.62, C 3.94, V 3.19, L 3.62, I 3.07, G 2.81, M 3.99, T 2.88, A 2.76, N 2.77
L7: C 2.03, W 2.28, F 2.56, N 1.95, P 1.3, D 1.97, A 2.03, G 1.79, Y 1.28, S 1.31, E 1.42, Q 1.79, M 2.58, K 2.38, H 1.7, R 1.78
G19: E 2.37, L 2.87, P 2.76, F 3.44, W 1.26, A 2.38, Y 3.17, S 2.71, H 2.78, V 3.02, R 3.51, K 3.24, Q 2.11, I 3.01, M 2.35, D 2.62, C 3.34, T 2.4
L17: C 3.59, Q 3.77, P 1.51, I 1.99, T 2.9, V 2.98, K 1.1, F 2.82, R 2.04, S 1.92, E 3.04, W 2.67, D 1.65, M 3.53, N 2.24, G 2.01, H 1.26
V21: F 2.23, C 3.21, P 2.42, W 3.68, R 1.3, K 1.97, D 2.86, I 2.41, E 2.03, N 3.55, S 3.12, T 1.82, Q 1.53, M 2.17, A 3.97, L 3.44, Y 2.32, G 1.62
I14: C 2.37, V 2.9, Y 3.54, H 3.1, S 3, W 1.77, M 3.25, Q 2.35, G 3.06, T 2.56, R 3, F 2.7, N 1.74, P 1.79, D 1.53, E 2.85, L 2.7, A 2.58, K 1.96
Q23: A 2.35
N8: K 4.32, I 1.53, Q 3.3, T 2.38, C 4.47, R 3, W 4.75, F 2.45, A 2.48, M 4.03, D 3.63, H 2.92, G 2.04, S 2.67
A4: G 1.68, R 3.48, P 2.09, M 1.5, E 2.94, S 3.29, D 2.37, F 3.05, H 2.97, I 2.37, V 2.42, W 2.28, K 2.59, Q 2.05, Y 3.38, N 2.53, T 2.35
Y20: K 2.46, H 2.13, F 1.29, R 3.14, T 1.97, N 4.26, M 4.22, V 3.32, G 2.25, D 3.08, L 2.66, I 3.01, P 2.58, A 2.91, E 4.31, C 3.38, Q 3, W 2.52
